Data from PMC3708883.

Assays:
[1] = target: β3 integrin (human (endogenous in peripheral blood monocytes)) (UniProt P05106)
[2] = target: β1 integrin (human (endogenous in peripheral blood monocytes)) (UniProt P05556)
Sequence of β1 integrin (human (endogenous in peripheral blood monocytes)) (P05556 21-798): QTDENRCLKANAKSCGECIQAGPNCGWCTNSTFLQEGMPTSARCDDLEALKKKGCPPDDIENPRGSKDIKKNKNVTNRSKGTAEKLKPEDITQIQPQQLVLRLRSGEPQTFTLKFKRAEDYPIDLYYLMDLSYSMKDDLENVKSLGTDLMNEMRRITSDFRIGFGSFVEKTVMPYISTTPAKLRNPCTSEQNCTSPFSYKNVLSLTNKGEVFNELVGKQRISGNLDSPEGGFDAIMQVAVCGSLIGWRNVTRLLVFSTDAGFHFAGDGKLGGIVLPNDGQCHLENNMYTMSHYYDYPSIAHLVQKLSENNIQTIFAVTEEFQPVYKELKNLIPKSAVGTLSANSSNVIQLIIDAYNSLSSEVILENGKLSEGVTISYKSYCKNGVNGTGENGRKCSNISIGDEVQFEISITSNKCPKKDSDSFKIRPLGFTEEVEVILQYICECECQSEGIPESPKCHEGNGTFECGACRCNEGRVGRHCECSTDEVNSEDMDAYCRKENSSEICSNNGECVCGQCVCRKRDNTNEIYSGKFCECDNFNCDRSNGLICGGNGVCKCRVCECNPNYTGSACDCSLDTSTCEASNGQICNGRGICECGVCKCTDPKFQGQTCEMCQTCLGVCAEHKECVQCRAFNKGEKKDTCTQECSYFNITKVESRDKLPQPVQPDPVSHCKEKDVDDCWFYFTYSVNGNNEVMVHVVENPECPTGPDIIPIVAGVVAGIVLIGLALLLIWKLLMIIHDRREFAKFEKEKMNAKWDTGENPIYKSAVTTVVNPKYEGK

Sequence of β3 integrin (human (endogenous in peripheral blood monocytes)) (P05106 27-788): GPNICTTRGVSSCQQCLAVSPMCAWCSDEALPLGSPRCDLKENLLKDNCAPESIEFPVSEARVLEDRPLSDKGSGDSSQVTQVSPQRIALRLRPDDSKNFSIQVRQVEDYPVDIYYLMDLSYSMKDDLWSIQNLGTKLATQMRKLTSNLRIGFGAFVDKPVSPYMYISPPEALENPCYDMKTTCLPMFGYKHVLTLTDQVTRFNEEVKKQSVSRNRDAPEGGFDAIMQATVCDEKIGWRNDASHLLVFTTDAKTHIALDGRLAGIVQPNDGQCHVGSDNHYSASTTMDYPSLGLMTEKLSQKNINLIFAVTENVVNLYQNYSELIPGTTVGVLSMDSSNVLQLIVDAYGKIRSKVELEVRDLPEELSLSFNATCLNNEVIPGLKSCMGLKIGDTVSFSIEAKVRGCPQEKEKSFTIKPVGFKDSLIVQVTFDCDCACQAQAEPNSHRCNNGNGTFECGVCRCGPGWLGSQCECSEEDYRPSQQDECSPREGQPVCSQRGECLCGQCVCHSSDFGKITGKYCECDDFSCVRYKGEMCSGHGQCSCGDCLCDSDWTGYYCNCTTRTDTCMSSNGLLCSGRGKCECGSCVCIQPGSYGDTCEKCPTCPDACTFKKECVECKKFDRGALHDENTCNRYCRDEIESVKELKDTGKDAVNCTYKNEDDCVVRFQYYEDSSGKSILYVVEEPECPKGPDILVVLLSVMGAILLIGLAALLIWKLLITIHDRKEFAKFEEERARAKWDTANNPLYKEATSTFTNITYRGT

HCMV gH/gL/UL128-131 complex of BADrUL131 (from UniProt P12824 24-743; P16832 31-278; P16837 1-171; P16772 1-214)
inhibition of BADrUL131 entry into monocytes (internalized vDNA) after pretreatment with 5 µg/ml function blocking anti-β3 integrin antibody [1]: 40%
inhibition of BADrUL131 entry into monocytes (internalized vDNA) after pretreatment with 5 µg/ml function blocking anti-β1 integrin antibody [2]: 75%
